*1 amine or outer side, *2 acyl side, *3 side chain or, on linkers, in order; H or OH if unused. Where no end group is shown, it is not given here. Side-chain parts run from the residue outwards. The star is where a group is joined. γGlu = O=C(O)[C@H](CCC(=O)[*:2])N[*:1]; Hydrocinnamoyl = O=C(CCc1ccccc1)*; Palmitoyl = CCCCCCCCCCCCCCCC(=O)*; Hexanoyl = CCCCCC(=O)*; Bz = O=C(c1ccccc1)*
T1: human VPAC2 receptor (human) (UniProt P41587)
T1 sequence: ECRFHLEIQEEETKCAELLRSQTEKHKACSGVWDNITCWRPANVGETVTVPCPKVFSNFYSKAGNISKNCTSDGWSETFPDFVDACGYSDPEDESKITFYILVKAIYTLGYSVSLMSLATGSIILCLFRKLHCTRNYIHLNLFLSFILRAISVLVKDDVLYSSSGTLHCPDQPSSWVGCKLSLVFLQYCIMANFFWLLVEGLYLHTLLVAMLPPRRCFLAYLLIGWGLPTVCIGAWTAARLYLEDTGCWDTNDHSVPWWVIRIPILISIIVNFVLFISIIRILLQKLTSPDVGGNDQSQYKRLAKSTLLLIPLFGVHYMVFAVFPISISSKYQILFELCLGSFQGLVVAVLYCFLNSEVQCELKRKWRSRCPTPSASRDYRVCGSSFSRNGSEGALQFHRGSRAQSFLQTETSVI


Molecular target: T1, human VPAC2 receptor (human)

Row | EC50 (nM) for cAMP generation, Alpha Screen [nM] | EC50 (nM) for cAMP generation, DiscoveRx [nM] | Binder
1 | 1.78 |  | HSDAVFTDNYTRLRKQVAAKKYLQSIKNSRTSPPPK(Trp)-NH2 (N-terminus assumed; SMILES CC[C@H](C)[C@H](NC(=O)[C@H](CO)NC(=O)[C@H](CCC(N)=O)NC(=O)[C@H](CC(C)C)NC(=O)[C@H](Cc1ccc(O)cc1)NC(=O)[C@H](CCCCN)NC(=O)[C@H](CCCCN)NC(=O)[C@H](C)NC(=O)[C@H](C)NC(=O)[C@@H](NC(=O)[C@H](CCC(N)=O)NC(=O)[C@H](CCCCN)NC(=O)[C@H](CCCNC(=N)N)NC(=O)[C@H](CC(C)C)NC(=O)[C@H](CCCNC(=N)N)NC(=O)[C@@H](NC(=O)[C@H](Cc1ccc(O)cc1)NC(=O)[C@H](CC(N)=O)NC(=O)[C@H](CC(=O)O)NC(=O)[C@@H](NC(=O)[C@H](Cc1ccccc1)NC(=O)[C@@H](NC(=O)[C@H](C)NC(=O)[C@H](CC(=O)O)NC(=O)[C@H](CO)NC(=O)[C@@H](N)Cc1c[nH]cn1)C(C)C)[C@@H](C)O)[C@@H](C)O)C(C)C)C(=O)N[C@@H](CCCCN)C(=O)N[C@@H](CC(N)=O)C(=O)N[C@@H](CO)C(=O)N[C@@H](CCCNC(=N)N)C(=O)N[C@H](C(=O)N[C@@H](CO)C(=O)N1CCC[C@H]1C(=O)N1CCC[C@H]1C(=O)N1CCC[C@H]1C(=O)N[C@@H](CCCCNC(=O)[C@@H](N)Cc1c[nH]c2ccccc12)C(N)=O)[C@@H](C)O) [P128]
2 | 1.82 | 2.8 | HSDAVFTDNYTRLRKQVAAKKYLQSIKNSRTSPPPK([γGlu-Palmitoyl])-NH2 (N-terminus assumed; SMILES CCCCCCCCCCCCCCCC(=O)N[C@@H](CCC(=O)NCCCC[C@H](NC(=O)[C@@H]1CCCN1C(=O)[C@@H]1CCCN1C(=O)[C@@H]1CCCN1C(=O)[C@H](CO)NC(=O)[C@@H](NC(=O)[C@H](CCCNC(=N)N)NC(=O)[C@H](CO)NC(=O)[C@H](CC(N)=O)NC(=O)[C@H](CCCCN)NC(=O)[C@@H](NC(=O)[C@H](CO)NC(=O)[C@H](CCC(N)=O)NC(=O)[C@H](CC(C)C)NC(=O)[C@H](Cc1ccc(O)cc1)NC(=O)[C@H](CCCCN)NC(=O)[C@H](CCCCN)NC(=O)[C@H](C)NC(=O)[C@H](C)NC(=O)[C@@H](NC(=O)[C@H](CCC(N)=O)NC(=O)[C@H](CCCCN)NC(=O)[C@H](CCCNC(=N)N)NC(=O)[C@H](CC(C)C)NC(=O)[C@H](CCCNC(=N)N)NC(=O)[C@@H](NC(=O)[C@H](Cc1ccc(O)cc1)NC(=O)[C@H](CC(N)=O)NC(=O)[C@H](CC(=O)O)NC(=O)[C@@H](NC(=O)[C@H](Cc1ccccc1)NC(=O)[C@@H](NC(=O)[C@H](C)NC(=O)[C@H](CC(=O)O)NC(=O)[C@H](CO)NC(=O)[C@@H](N)Cc1c[nH]cn1)C(C)C)[C@@H](C)O)[C@@H](C)O)C(C)C)[C@@H](C)CC)[C@@H](C)O)C(N)=O)C(=O)O) [P80]
3 | 0.29 |  | Hexanoyl-HSDAVFTDNYTRLLLKVAAKKYLQSIKNSRTSPPP-NH2 (SMILES CCCCCC(=O)N[C@@H](Cc1c[nH]cn1)C(=O)N[C@@H](CO)C(=O)N[C@@H](CC(=O)O)C(=O)N[C@@H](C)C(=O)N[C@H](C(=O)N[C@@H](Cc1ccccc1)C(=O)N[C@H](C(=O)N[C@@H](CC(=O)O)C(=O)N[C@@H](CC(N)=O)C(=O)N[C@@H](Cc1ccc(O)cc1)C(=O)N[C@H](C(=O)N[C@@H](CCCNC(=N)N)C(=O)N[C@@H](CC(C)C)C(=O)N[C@@H](CC(C)C)C(=O)N[C@@H](CC(C)C)C(=O)N[C@@H](CCCCN)C(=O)N[C@H](C(=O)N[C@@H](C)C(=O)N[C@@H](C)C(=O)N[C@@H](CCCCN)C(=O)N[C@@H](CCCCN)C(=O)N[C@@H](Cc1ccc(O)cc1)C(=O)N[C@@H](CC(C)C)C(=O)N[C@@H](CCC(N)=O)C(=O)N[C@@H](CO)C(=O)N[C@H](C(=O)N[C@@H](CCCCN)C(=O)N[C@@H](CC(N)=O)C(=O)N[C@@H](CO)C(=O)N[C@@H](CCCNC(=N)N)C(=O)N[C@H](C(=O)N[C@@H](CO)C(=O)N1CCC[C@H]1C(=O)N1CCC[C@H]1C(=O)N1CCC[C@H]1C(N)=O)[C@@H](C)O)[C@@H](C)CC)C(C)C)[C@@H](C)O)[C@@H](C)O)C(C)C) [P156]
4 | 4.01 | 1.7 | Hydrocinnamoyl-HSDAVFTDNYTRLRKQVAAKKYLQSIKNSRTSPPP-NH2 (SMILES CC[C@H](C)[C@H](NC(=O)[C@H](CO)NC(=O)[C@H](CCC(N)=O)NC(=O)[C@H](CC(C)C)NC(=O)[C@H](Cc1ccc(O)cc1)NC(=O)[C@H](CCCCN)NC(=O)[C@H](CCCCN)NC(=O)[C@H](C)NC(=O)[C@H](C)NC(=O)[C@@H](NC(=O)[C@H](CCC(N)=O)NC(=O)[C@H](CCCCN)NC(=O)[C@H](CCCNC(=N)N)NC(=O)[C@H](CC(C)C)NC(=O)[C@H](CCCNC(=N)N)NC(=O)[C@@H](NC(=O)[C@H](Cc1ccc(O)cc1)NC(=O)[C@H](CC(N)=O)NC(=O)[C@H](CC(=O)O)NC(=O)[C@@H](NC(=O)[C@H](Cc1ccccc1)NC(=O)[C@@H](NC(=O)[C@H](C)NC(=O)[C@H](CC(=O)O)NC(=O)[C@H](CO)NC(=O)[C@H](Cc1c[nH]cn1)NC(=O)CCc1ccccc1)C(C)C)[C@@H](C)O)[C@@H](C)O)C(C)C)C(=O)N[C@@H](CCCCN)C(=O)N[C@@H](CC(N)=O)C(=O)N[C@@H](CO)C(=O)N[C@@H](CCCNC(=N)N)C(=O)N[C@H](C(=O)N[C@@H](CO)C(=O)N1CCC[C@H]1C(=O)N1CCC[C@H]1C(=O)N1CCC[C@H]1C(N)=O)[C@@H](C)O) [P90]
5 | 1.9 | 0.76 | Bz-HSDAVFTDNYTRLRKQVAAKKYLQSIKNSRTSPPP-NH2 (SMILES CC[C@H](C)[C@H](NC(=O)[C@H](CO)NC(=O)[C@H](CCC(N)=O)NC(=O)[C@H](CC(C)C)NC(=O)[C@H](Cc1ccc(O)cc1)NC(=O)[C@H](CCCCN)NC(=O)[C@H](CCCCN)NC(=O)[C@H](C)NC(=O)[C@H](C)NC(=O)[C@@H](NC(=O)[C@H](CCC(N)=O)NC(=O)[C@H](CCCCN)NC(=O)[C@H](CCCNC(=N)N)NC(=O)[C@H](CC(C)C)NC(=O)[C@H](CCCNC(=N)N)NC(=O)[C@@H](NC(=O)[C@H](Cc1ccc(O)cc1)NC(=O)[C@H](CC(N)=O)NC(=O)[C@H](CC(=O)O)NC(=O)[C@@H](NC(=O)[C@H](Cc1ccccc1)NC(=O)[C@@H](NC(=O)[C@H](C)NC(=O)[C@H](CC(=O)O)NC(=O)[C@H](CO)NC(=O)[C@H](Cc1c[nH]cn1)NC(=O)c1ccccc1)C(C)C)[C@@H](C)O)[C@@H](C)O)C(C)C)C(=O)N[C@@H](CCCCN)C(=O)N[C@@H](CC(N)=O)C(=O)N[C@@H](CO)C(=O)N[C@@H](CCCNC(=N)N)C(=O)N[C@H](C(=O)N[C@@H](CO)C(=O)N1CCC[C@H]1C(=O)N1CCC[C@H]1C(=O)N1CCC[C@H]1C(N)=O)[C@@H](C)O) [P91]
6 | 0.06 |  | Hexanoyl-HSDAVFTDQYTRLRKQVAAKKYLQSIKQSRTSPPP-NH2 (SMILES CCCCCC(=O)N[C@@H](Cc1c[nH]cn1)C(=O)N[C@@H](CO)C(=O)N[C@@H](CC(=O)O)C(=O)N[C@@H](C)C(=O)N[C@H](C(=O)N[C@@H](Cc1ccccc1)C(=O)N[C@H](C(=O)N[C@@H](CC(=O)O)C(=O)N[C@@H](CCC(N)=O)C(=O)N[C@@H](Cc1ccc(O)cc1)C(=O)N[C@H](C(=O)N[C@@H](CCCNC(=N)N)C(=O)N[C@@H](CC(C)C)C(=O)N[C@@H](CCCNC(=N)N)C(=O)N[C@@H](CCCCN)C(=O)N[C@@H](CCC(N)=O)C(=O)N[C@H](C(=O)N[C@@H](C)C(=O)N[C@@H](C)C(=O)N[C@@H](CCCCN)C(=O)N[C@@H](CCCCN)C(=O)N[C@@H](Cc1ccc(O)cc1)C(=O)N[C@@H](CC(C)C)C(=O)N[C@@H](CCC(N)=O)C(=O)N[C@@H](CO)C(=O)N[C@H](C(=O)N[C@@H](CCCCN)C(=O)N[C@@H](CCC(N)=O)C(=O)N[C@@H](CO)C(=O)N[C@@H](CCCNC(=N)N)C(=O)N[C@H](C(=O)N[C@@H](CO)C(=O)N1CCC[C@H]1C(=O)N1CCC[C@H]1C(=O)N1CCC[C@H]1C(N)=O)[C@@H](C)O)[C@@H](C)CC)C(C)C)[C@@H](C)O)[C@@H](C)O)C(C)C) [P157]
7 | 0.12 |  | Hexanoyl-HSDAVFTDNYTRLRKAAAAKKYLQSIKNSRTSPPP-NH2 (SMILES CCCCCC(=O)N[C@@H](Cc1c[nH]cn1)C(=O)N[C@@H](CO)C(=O)N[C@@H](CC(=O)O)C(=O)N[C@@H](C)C(=O)N[C@H](C(=O)N[C@@H](Cc1ccccc1)C(=O)N[C@H](C(=O)N[C@@H](CC(=O)O)C(=O)N[C@@H](CC(N)=O)C(=O)N[C@@H](Cc1ccc(O)cc1)C(=O)N[C@H](C(=O)N[C@@H](CCCNC(=N)N)C(=O)N[C@@H](CC(C)C)C(=O)N[C@@H](CCCNC(=N)N)C(=O)N[C@@H](CCCCN)C(=O)N[C@@H](C)C(=O)N[C@@H](C)C(=O)N[C@@H](C)C(=O)N[C@@H](C)C(=O)N[C@@H](CCCCN)C(=O)N[C@@H](CCCCN)C(=O)N[C@@H](Cc1ccc(O)cc1)C(=O)N[C@@H](CC(C)C)C(=O)N[C@@H](CCC(N)=O)C(=O)N[C@@H](CO)C(=O)N[C@H](C(=O)N[C@@H](CCCCN)C(=O)N[C@@H](CC(N)=O)C(=O)N[C@@H](CO)C(=O)N[C@@H](CCCNC(=N)N)C(=O)N[C@H](C(=O)N[C@@H](CO)C(=O)N1CCC[C@H]1C(=O)N1CCC[C@H]1C(=O)N1CCC[C@H]1C(N)=O)[C@@H](C)O)[C@@H](C)CC)[C@@H](C)O)[C@@H](C)O)C(C)C) [P178]

Reference: patent US20080096811A1, “[…] VPAC2 RECEPTOR PEPTIDE AGONISTS” (Eli Lilly and Company, published 2008)
